Measurements published in the DeepSol protein solubility set.

Assay: soluble on expression in E. coli; label from the status in PepcDB or PDB records

| Sequence | soluble on expression in E. coli |
| --- | --- |
| MGSDKIHHHHHHMLSRIAESLFWIGRYVERADGTARILDVHLERLNHLPTEERDNVARELLAVMGARPESDEFGLEELLHALAYDKQSATSIAGSLGAARENARRARETVSSGLWESLNTTYYGLNQHRKDVVGTYRFCHWVLERTAMVSGLADTTVSHDDSWLFLALGRSLERADMTARMLSTRDVLSAGMSWVNMLRCAGAYESFLRTRRAAFGDQHAAEFLLLDRLFPRSIVYALRDADECLAKLDPSAQRVGFINDARRIVGQARTFLEFHRTDDLMSELPEHMERVQKAVSQASDAISRKYFNQADELAWVGEVS | not soluble |
| MGHHHHHHSHVLLFVYGEPVTRPHSGPAVYFWRHRKQADLDLARGDFAQAAQQLWLALRALGRPLPTSHLDLACSLLWNLIRHLLQRLWVGRWLAGRAGGLQQDCALRVDASASARDAALVYHKLHQLHTMGKHTGGHLTATNLALSALNLAECAGDAVSVATLAEIYVAAALRVKTSLPRALHFLTRFFLSSARQACLAQSGSVPPAMQWLCHPVGHRFFVDGDWSVLSTPWESLYSLAGNPVDPLAQVTQLFREHLLERALNCVTQPNPSPGSADGDKEFSDALGYLQLLNSCSDAAGAPAYSFSISSSMATTTGVDPVAKWWASLTAVVIHWLRRDEEAAERLCPLVEHLPRVLQESERPLPRAALHSFKAARALLGCAKAESGPASLTICEKASGYLQDSLATTPASSSIDKAVQLFLCDLLLVVRTSLWRQQQPPAP | not soluble |
| PLGSDGLPLDPRDWTRADVWKWLINMAVSEGLEVTAELPQKFPMNGKALCLMSLDMYLCRVPVGGKMLYRDFRVRLARAMSR | soluble |
| MAGQLPRRIIKETQRLLADPVPGISANPDESNARYFHVMIAGPDDSPFAGGVFKLELFLPEEYPMAAPKVRFMTKIYHPNIDKLGRICLDILKDKWSPALQIRTVLLSIQALLSAPNPEDPLATDVAEQWKTNEAEAIKTAKQWTMNYAQA | not soluble |
| AKVNIKPLEDKILVQANEAETTTASGLVIPDTAKEKPQEGTVVAVGPGRWDEDGEKRIPLDVAEGDTVIYSKYGGTEIKYNGEEYLILSARDVLAVVSK | soluble |
| KRRAALNLRIFATEGAMMLGVTLSRLEGRSFIERSPGRRPFFKPGPLSPRLSRAFVNLSRLQRGGSFADPFCGTGGFAIEACLLGASRIACGDLDWAMVRGGPLNLSRYCPPGIWFYSAWNAAKLPLSSNSVDSIATDPPYGRSTTTGRMGYLSLTRAFLNTAVEVLRSEGWIVYAGPTRMSPETLAEDAGLRVVKVIEMFVHGSLTRSIVVARFG | not soluble |
| MMAKLVVCIIDGMADPPPPAGGVTPLAAAHTPHCDTLARHSVAGLCHVIQPEAVPGSEAGLSALLCCEAAASIARGPVEALAQGDPVAPHETVWRLNLVSLGPRGNYYNPAPLLDAATETAARKMLDRALGTQGYSLLGGKGFRHLCAGTEPPVLRDGPQDVCGMTPDTGQADLNSYCPRLARAMTEANVLFRRSRMDLAVWPWGAGTMPDLPGFAETTGQTGALAGGVPLARGLALALGMTAPSIAGATGGIDTDLGAKTRAAIALAAGHDVVYLHVEAPDLHAHALDRVAKRRAIERIDAEVVGPLHMALPDATLLITCDHATDCATGRHMAIPVPFILHKPDGPQDGIATFSEAASARTGIRIDSAATLVRLALADLEHHHHHH | soluble |
| MPKDKKKDEVTEVEHVDRNISSFSQISHLIDAEIITRLTLSHNKLTSVPPNIADLVSLQSLNLWNNQIEDLPPSISSLPKLRILNVGMNKLSILPRGFGSFPELEILDLTYNNLSERSLPGNFFFMQTLRALYLGDNDFEMLPGDVENLTNLQILVLRENDLLTLPKELGKLTRLRELHIQGNRLAMIPPELGNLELVGSKQVLRLEHNPFIPRIEEQFEANGAAGVWAHIRTDDYRYFFGRQEPSSTPVPPKRNKEKKVSRKGIQQA | not soluble |
| GMSRDRLYTWAGLWRSPSSSWEALRLEDDQAESQLRAPDERSGLPYQLDYRLRWDADWHLREAVFHVESETGVRKLHLLADGRGHWQDGDGEALPAFDGCLDIDIWPSPFTNTFPIRRLGLADGQRAEIRALYIEAPALEPRSMRQAYTRLDASHYLYENLEGSAFKAVLLVDEQGLVIDYPGLFQRL | soluble |
| MSLMEDVGKEMSKIIQKRDINERYEELVNEVLKDQDVQAFIQANRERLTDEDIRKSYAKLYEFVQEKKKFQVNDPAMIAPGYEPRLMLNFHYIDVTYVPTADLIARQKEEEIRNRVRAMDMPKDVREANLRDFDPSSQGRAKALAEAMQFLREYPATPKEFHKGLYLQGPFGVGKSFLLGAMANALAERGFTTTIVHFPTFTVEMKQAIGRDQVGEKLDAVKKSPILMIDDIGAESMTSWIRDDVLSVILQYRMQEQLVTFFSSNLDLKALEEHLTVTQRGEQEPLKARRIMERVRYLSKEITMTGNDRRNGEGHHHHHH | soluble |
| MKLPKEGDFITIQSYKHDGRLHRTWRDTMVLKTTENAVIGVNDHTLVTEADGRRWVTREPAIVYFHKKYWFNIIAMIRDNGISYYCNLASPYVLDQEALKYIDYDLDVKVFADGEKKLLDVDEYEIHKKEMHYSPDIDYILKEHVKILVDWINNGKGPFSQSYVNIWYKRYLELRNR | not soluble |
| MFDKHTHTLIAQRLDQAEKQREQIRAISLDYPEITIEDAYAVQREWVRLKIAESRTLKGHKIGLTSKAMQASSQISEPDYGALLDDMFFHDGSDIPTDRFIVPRIEVELAFVLAKPLRGPNCTLFDVYNATDYVIPALELIDARCHNIDPETQRPRKVFDTISDNAANAGVILGGRPIKPDELDLRWISALMYRNGVIEETGVAAGVLNHPANGVAWLANKLAPYDVQLETGQIILGGSFTLPVPARKGDTFHVDYGNMGSISCRFV | not soluble |
| PLEDWPDDVLASLPRGISRHTVRFVNVDGHVFAIKEIGQKAAYHEYKMLRDLNRLGAPSVQPLAVITGRVDATGQPLTPALVTEHLSFSLPYRAVFSQTSVSRSMRPETATR | not soluble |
| MHPGIDSMSSNINCENNPFSFYGNPHKSVIIHGKEGTELLKEKGEDCKTFENSQQYFLWCCVQQQMYHYQLLSTAFASYGFEPPRIPGAFPHHIPPIFNGSMKCLRDREVFNQSGFLYVNVSPDTYQETRQEAPVEQRNQWSEKSKTTSKKSICKVLFECTNSSLLENAENRSIFSKQGSGSHVGENSKNPSEDSGQSGRLSQNATAEHNVLEKHLQEEYQMAKNTVNESFDSLKECSAASVIKGSYLLSQVVHIPEDAIEPEIPPDLQGPGGHVFLRMLSRSWRQYKRALEHNE | not soluble |
| MAQFIDRRLNGKNKSAVNRQRFLKRHKEQIKESVADAVNRRSITNTETGEDVSIPHKDINEPIFHQGKGGVRERVHPGNDQFITGDKIERPKGGGQGSGSGEGNASPDGEGQDEFVFQISKDEYLDILFEDLELPNLEKNQIAKITEWKTHRAGFQTAGIPSNISVIRSLQQSLARRTAMTAGKKRLLKELEDELTRIKNIEPAQQLEENRLKKEIEELRKKIENVPFIDTFDLRFKNYEKRPVPSSQAVMFCLMDVSGSMDQATKDIAKRFYVLLYLFLTRTYENVDVVFIRHHTQAKEVDEHEFFYSQETGGTIVSSALKLMDEIVKERYPVGQWNIYAAQASDGDNWADDSPRCRDLLVNKLLPNCQYYSYIEITRRSHQTLWHEYEKLTDEFPNFAMKNIRSVEDIFPVFRELFQKETALEHHHHHH | soluble |
| MAIKGPRKHLKRLAAPANWQLPRKVKTFTVRPSPGPHSMDKSLPLLLVVRDVLKYADNAREAKKIIQTGKILIDGLKRKEYKHPAGLMDVLSIPEMDETYLVLFDESGRISLKKTDKTDVKLCKIVNKTVVKGGNIQLNLHDGRNQIVKVSDAAKAEEDVYKTGDSVLISIPEQSIAGHVAFGEGKLAYITGGKHVGEFAKIVEVENRALYSDIVTLENKDGEKFKTVKPYVFIVGQDEPVISMLEHHHHHH | soluble |
| MVELLAPARDLSGLITAFNNGADSVYCGLKEMSMRATAKNFERNELIEGINFAHDADKRVYLCTNTVVYEDDILNLNEILEFAKSAEVDAIIVNDIGAMVTAKELGLEVHVSVQNNITNSKTAEFFSKFAKRVVLSRELTLNQIKRIKENLKVNKVDLELEGFIHGALCTAMSGRCYLSSYLFNRNANCGDCLQPCRRSWKLVNEHADGTHELISEGKYLLSPKDLCMIEHIPEMIDVFDCFKIEGRAKNVDYVMRATKTYREAIDSVVDGTYEEKLPIFKKELDKIYNREYDTGFYFRDLTCNHDLQYEFEGNVSPYKKIEVGKVVNYFKKVDVAEITLIDDLKVGDSVLIIGPTTGCIEEKIESMQVEGENITTAKKGQNVGIKLENLVRENDKVYILKED | not soluble |
